Key:
[1] = molecular target: T1, variant nuclease D590G combination (P14R, D32R, I61R, E311R, D590G); assay: cell_activity; PAM 5'-TTTA-3'; conditions: tags: pcDNA3.1 expression
T1 chain: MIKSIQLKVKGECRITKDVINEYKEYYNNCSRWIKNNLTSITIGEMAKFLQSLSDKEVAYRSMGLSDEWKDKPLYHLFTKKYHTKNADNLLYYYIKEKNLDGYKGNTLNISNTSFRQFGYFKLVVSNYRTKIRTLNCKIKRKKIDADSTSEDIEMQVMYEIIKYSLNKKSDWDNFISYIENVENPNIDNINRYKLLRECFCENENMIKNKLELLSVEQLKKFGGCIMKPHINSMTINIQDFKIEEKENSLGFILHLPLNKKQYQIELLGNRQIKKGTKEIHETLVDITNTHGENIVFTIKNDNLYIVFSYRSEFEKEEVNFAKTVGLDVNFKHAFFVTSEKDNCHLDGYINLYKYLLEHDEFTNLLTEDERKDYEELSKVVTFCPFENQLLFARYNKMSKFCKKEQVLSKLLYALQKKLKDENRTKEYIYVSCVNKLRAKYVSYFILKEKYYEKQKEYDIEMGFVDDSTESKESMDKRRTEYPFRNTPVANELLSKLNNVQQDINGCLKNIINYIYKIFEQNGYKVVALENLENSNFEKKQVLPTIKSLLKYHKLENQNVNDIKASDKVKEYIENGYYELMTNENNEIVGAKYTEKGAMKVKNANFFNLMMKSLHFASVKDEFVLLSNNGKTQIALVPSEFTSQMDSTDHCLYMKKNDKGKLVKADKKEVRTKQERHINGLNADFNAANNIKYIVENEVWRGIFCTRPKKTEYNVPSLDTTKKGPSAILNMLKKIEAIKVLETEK
In short: (§1)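 HEK293T cells were lipofected with nuclease plasmid (pcDNA3.1 backbone) plus RNA guide plasmid, with guide omitted in negative controls. After ~72 h cells were lysed in QuickExtract and % indels were derived from NGS reads, averaged over two bioreplicates and two technical replicates.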

[2] = molecular target: T2, variant nuclease T338G combination (P14R, D32R, I61R, E311R, T338G); assay: cell_activity; PAM 5'-TTTA-3'; conditions: tags: pcDNA3.1 expression
T2 chain: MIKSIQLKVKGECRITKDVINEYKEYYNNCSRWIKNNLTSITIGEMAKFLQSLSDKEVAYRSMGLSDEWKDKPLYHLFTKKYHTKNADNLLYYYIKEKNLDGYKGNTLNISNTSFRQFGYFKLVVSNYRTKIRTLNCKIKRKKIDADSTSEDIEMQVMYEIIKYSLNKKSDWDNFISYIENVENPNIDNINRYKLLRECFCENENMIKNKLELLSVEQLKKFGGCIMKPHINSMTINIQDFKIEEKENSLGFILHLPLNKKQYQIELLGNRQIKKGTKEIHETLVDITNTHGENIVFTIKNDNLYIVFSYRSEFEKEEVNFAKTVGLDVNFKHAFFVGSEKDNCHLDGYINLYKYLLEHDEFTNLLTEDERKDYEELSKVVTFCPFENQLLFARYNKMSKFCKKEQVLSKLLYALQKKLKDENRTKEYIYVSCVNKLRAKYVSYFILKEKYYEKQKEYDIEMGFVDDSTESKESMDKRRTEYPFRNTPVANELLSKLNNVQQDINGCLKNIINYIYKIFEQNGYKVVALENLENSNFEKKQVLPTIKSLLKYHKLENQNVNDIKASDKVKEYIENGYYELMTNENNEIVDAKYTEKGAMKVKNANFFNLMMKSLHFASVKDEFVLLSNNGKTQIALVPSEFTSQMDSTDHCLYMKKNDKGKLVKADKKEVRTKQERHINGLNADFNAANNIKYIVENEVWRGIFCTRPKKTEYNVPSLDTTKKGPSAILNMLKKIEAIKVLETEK
In short: as §1

B1: VEGFA crRNA ; VEGFA target (ssRNA ; dsDNA)
RNA: CUUGUUGUAUAUGUCCUUUUAUAGGUAUUAAACAACUCCAGACCACCAAUGGGCAC
DNA 1: TCCAGACCACCAATGGGCAC
DNA 2: GTGCCCATTGGTGGTCTGGA
indel activity [1]: 2.68 fold of WT
indel activity [2]: 2.72 fold of WT

From patent publication US20240035010, “COMPOSITIONS COMPRISING A VARIANT POLYPEPTIDE AND USES THEREOF” (Arbor Biotechnologies, Inc., published 2024)
